Results as given in the supplement of paper PMC9170038.

Tested on: K4 kissing-loop RNA reporter
Assay: apparent KD of K4 kissing-loop reporter; higher = weaker reporter binding
Conditions: Eterna round: R107; input ligand: none
Protocol: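 RNA-MaP round R107: designed RNA switches with theophylline, tryptophan, arginine or FMN aptamers are transcribed on-chip within common flanks. They are titrated with a labelled K4 kissing-loop RNA reporter in RNA-MaP buffer (100 mM Tris pH 7.5, 80 mM KCl, 4 mM MgCl2), without ligand or with the indicated ligand. Median apparent KD per design.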
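Further: bound reporter read as fluorescence of individual clusters on recovered sequencing chips by microscopy, with normalized cluster intensities fitted with a binding model.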

Sequence | apparent KD of K4 kissing-loop reporter [nM]
UUCAUCGUGGUUCGCGGGUGGUAUGAAAAGCGAGGACCGGUACGGCCGCCACUCGGUUCCGCUUGUUGAGUGAUGUUCAAUAUUU | 251
AACUGUCAAGGACAACAUUACUGAGGUGAUACCAGCAUCGAAAGAUGCCCUUGGCAGCACUGACUUGCAGUGAUGUUGCAAGUAA [BrourdMod 8 - Jieux - Exclusion - Theophylline A] | 199
UUAACCAACAGCGAUACCAGCGUGGAGUGAUGUUCCGAGGAUCGGAGUGAUGUUCCGAAGCGCCCUUGGCAGCGCAGAAGCGCCA [Exclusion Theophylline B GF9] | 130
AGUGGACGUGUCCGGAGUGAUGUUCAGGAUACCAGACACGAAAGUGUCCCUUGGCAGCCGGAGUGAUGUUCCGGCGUUCACUAAA [Omei KL Theo A Exc B v4] | 360
GAUAUAGAGGCGGCCGCCACUAGUGAUGUUAGUGAUGUUAGAUAGAGAAUAGAACAGAGGUGGGAUAGGACCGGGCCAGAUAGAG [whbob_SS_Tryp_B_w34] | 67.9
GGGAGUAGUGCGGCCGCCACUGAGAAAGAAGAAGAUUGUAGUGAUGUUAUGGAGGAAAGGAAGAACAGGACCGGGCAUUAGAUUU [SSTRyptB.I] | 231
GGAUAGGACACAGGAUAUGGUAGUGAUGUUACCAAACUGGUUAAACAUGUCAGAAAACUGGCAUGACCAGAAGGGUGUCCUAUCG [FmnBX 27 C11+G75] | 66.2
AUUGUCGGAGUCUGUGCUGACUGACGAGCAAAGGAUAUGUUAUUAAACAGAAGGUUGUGCUGCUUAAGUGAUGUUUUUGGAGCUA [theeternabot_sameState_KL_FMN_A_26] | 239
CGAUUCAUGGCGGCCGCCACUCGCGAAGCUCCCGUUACGAUGUCCGCAACAGUGAUGUUGUUGCCGAGGACCGGGCCGAGAUCCA [theeternabot_exclusion_KL_Trp_B_31] | 228
GGUAGCUAGGUAGGAUAUAGCUAGUGGAGUGAUGUUCCACGAUACACGAGUGAUGUUCGUACCCUGCUAGAAGGGCCUAGCUACC | 168
GGUAGCAUGGCGGCCGCCACUCAUCGCCUCCCAUCGUCGGGAAGAAUAAGUGUAGUGAUGUUACAGAGGACCGGGCCAUGCUACC | 898
AGUCUCAAAAGAGGCAGCACUCACGAGGACAAGGAUAUCAUCUCAAUGAGAAGGUGUCCUCGUCCCUAGUGAUGUUAGGGAGUGC [Omei KL FMN A SS E v6] | 305
ACCUGUAGCAGAAGGAGCGACAGUUAUUCUGAUAGAACUCUGAGUGAUGUUCAGAACAACUGUCAGGUAGGUCGCUGAUACAGGU [Arg B Ex t8a] | 560
AUAUUUAUUUAGUCACUUUUCAUAUUAUGUCAGGAUAUCGUAUUUUCGAGAAGGGACUCAUGCUAGUGAUGUUAGCUAUUUCUCA [JR_Nu3_ExcFMNA_Sub022] | 141
UGGAUAUAGUGAUGUUAUAUAGAGAGUGAUACCAGUUUAGAGAAGAACCCUUGGCAGCAUAGAGAAGUAUCAUUAGAGAAGAAUG [ExTheophyl.Ap] | 233
GGUCCGGGCUCGGCCGCCACUCCCUCCUGCCGUAAGGUGGGAUACCGAGUGAUGUUCGGUUGGAGGAGGACCGGGAGCCCGGACC [#2 Exclusion - Tryptophan B Attempt #15 (HarryS)] | 122
GGCAUGGUGACGCGGCUGCCAUGCACUUGGGAGGAUAUGUUUCGUGACAGAAGGCCCAGUGAUGUUGGGUCUGUUCAAAAGGACU [Lerere] | 146
ACAGGAUCGAAGAUCCUGAGCAGUCAGGUCCGAGGACCGGUACGGCCGCCACUCGGAGUGAUGUUCCGAAGACUGCAAAAUAAAA [#SwitchBubble 4] | 1110
UGACUGGACUGAAGGAGCGCUAAAACUCCUAGUGAUGUUGGGAAAUAAGAGACAAAGUCUCAGCAGGUAGGUCGCAGUCUAGUCU [ArgBS 24 #SwitchBubble #StaticStem] | 503
CUUUGAACAUGAGUGAUGUUCAUGUCCGAAGGAGCGUGCGAAAGCACAGGUAGGUCGCGGACGUGAGUGAUGUUCAUGUGAGCGA [KL-XArg-A11 #analogue] | 161
UACAAACGUAGUGAUGUUACGUACUCUGAUACCAGACAAGUGUAAGUCCCUUGGCAGCAGUCAUUUUGCUUAUUAUUUUCUCAAA [JR_ExcTheophyA_Sub019] | 74.1
GUGGGCAUAGCAGGAUAUCCAUAUUAACAGGAGUCCUCGCCAGUGAUGUUGGAAAGGUACCGGAGUGGAGAAGGGCUCCUACGUA [Anbiratien] | 813

Same assay, conditions: Eterna round: R107; input ligand: theophylline 20 uM

Sequence | apparent KD of K4 kissing-loop reporter [nM]
UUUUUCGCGUUUGAUACCAGCAGAGUUGUUCGUGUCUGGAACAUGAGUGAUGUUCAUGUCUGCCCUUGGCAGCAAACGGGAGAAG [KL-XTheo-B13] | 87.8
GGGUGGCAGGCGGCCGCCACUCUGAGCACCCACUGAGUGAUGUUCGUGGCGUAAGCCUGUUCGUAGAGGACCGGGUUUGUUGUUC [Exclusion Tryptophan B GF 15] | 281
GGUGACAACCAGAGGUGAUGUAUAGAAUAGCGAGGACCGGUACGGCCGCCACUCGUGAAGAGAAAGGAGUGAUGUUCCGUAAUGG [Kazoo C5] | 485
GCAGUGAUGUUGCGCAGGUACAGUGGAGUGCGAGGACCGGUACGGCCGCCACUCGUACAGAACUAGCUAAUAUAUGGAUAGGUGA [VIII] | 347
UGUUAUGGGUGAGGAUAUGCUGACGAUGCGGGUGCGAGUGAUGUUGGUGUGGCUGGUGUCGUUUGUGCAGAAGGCACGCUCGUGG [BDazzled] | 846
